Tests used:
dimethylated casein [1] = biological target: dimethylated casein
dimethylated casein [2] = biological target: dimethylated casein; remark: listed apart in the source
dimethylated casein [3] = biological target: dimethylated casein; remark: listed apart in the source
casein = experiment: Control of gelation of casein solution by NaCl and CaCl2; format: biochemical; design: key to degree of gelation: -: the solution was still in the solution state; ±: the solution was a high viscosity product; +: the solution was a gelated product
Procedure: To an aqueous solution of casein (available from Sigma Company) having a protein concentration of 1% by weight, there was added NaCl in such an amount that the concentration thereof was 0, 0.1 or 0.3M, while variously changing the calcium chloride concentration within the range of from 0 to 200 mM to thus investigate the gelation of the protein. In this connection, the purified transglutaminase was added in an amount corresponding to 4.0 units per 1 mg of the protein. After carrying out the reaction at 37° C. for 90 minutes, the degree of gelation was evaluated.

[4] = test system: dimethylated casein and monodansylcadaverine; experiment: Transglutaminase activity of purification fractions (monodansylcadaverine incorporation into dimethylated casein, fluorescence); format: biochemical
Procedure: The activity of the transglutaminase is determined by reacting the enzyme with dimethylated casein and monodansylcadaverine as substrates and measuring an increase in the fluorescent intensity of casein due to the incorporation of monodansylcadaverine into the dimethylated casein. The composition of the reaction solution is as follows:
To 2.4 ml of the foregoing reaction solution, there is added 20 to 50 μl of the transglutaminase solution followed by carrying out the reaction at 37° C. for 30 min, terminating the reaction by addition of 100 μl of a 500 mM EDTA solution and then determining the fluorescent intensity of the reaction solution (using a device: RF-1500 available from Shimadzu Corporation; excitation wavelength: 350 nm; wavelength of emitted fluorescent rays: 480 nm). In respect of the unit of the activity, that required for increasing the fluorescent intensity by 1.0 within one minute is herein defined to be one unit.
Thus, the purified transglutaminase originating from Crassostrea gigas was obtained.

[5] = test system: dimethylated casein and monodansylcadaverine; experiment: Effect of NaCl and Ca2+ on enzyme activity; format: biochemical; conditions: for effect of NaCl concentration on enzyme activity (in words): increasing NaCl concentration
[6] = test system: methylated casein and monodansylcadaverine; experiment: Transglutaminase activity of yeast crushed cell extract while changing the NaCl concentration; format: biochemical; conditions: control: 1.2 μg protein
Text: The crushed cell extract of the foregoing Saccharomyces cerevisiae INVSC2/pCGTG4S AJ14697 (FERM BP-4964) was inspected for the transglutaminase activity while changing the NaCl concentration in the reaction solution by way of comparison (Table 7).

[7] = test system: methylated casein and monodansylcadaverine; experiment: Transglutaminase activity of crushed cell supernatant of transformed Escherichia coli (pCGTG4E); format: biochemical; conditions: cultivation temp. 26° C.; control: 1.2 μg protein
Text: Then the transglutaminase activity of the crude extract was investigated by an activity-detection method which made use of an increase in the intensity of fluorescent light (the fluorescent intensity observed at 480 nm while exciting with the light rays of 350 nm) due to the linkage of monodansylcadaverine to methylated casein as an indication. This activity-detection method is the method disclosed in Nippon Suisan Gakkaishi, 1991, 57, pp. 1203-1210 which is slightly modified. More specifically, 20 μl of each crude extract was added to 2 ml of a solution comprising 50 mM Tris-HCl buffer (pH 8.5), 1 mg/ml methylated casein, 15 μM monodansylcadaverine and 10 mM calcium chloride, followed by stirring and keeping warm at 37° C. for 20 minutes. After the reaction, 100 μl of 500 mM EDTA solution was added to the reaction system and each reaction solution was inspected for the intensity of emitted fluorescent light using a fluorophotometer (Shimadzu RF-1500, available from Shimadzu Corporation).
The colony of the transformant (FERM BP-4962) thus obtained was inoculated on 50 ml of LB culture medium (comprising 10 g/l of trypton, 5 g/l of yeast extract and 10 g/l of NaCl (pH 7.0)) supplemented with 50 mg/l of ampicillin and 10 mM of IPTG contained in a Sakaguchi flask, followed by cultivation at 26° C. for 21 hours and collection of the bacterial cells from the culture medium. […]

[8] = test system: methylated casein and monodansylcadaverine; experiment: Transglutaminase activity of crushed cell extract of transformed Saccharomyces cerevisiae; format: biochemical; conditions: 0.35 ml supernatant, GAL1 induced; control: 1.2 μg protein
Procedure: Then the transglutaminase activity of the crude extract was investigated by an activity-detection method which made use of an increase in the intensity of fluorescent light (the fluorescent intensity observed at 480 nm while exciting with the light rays of 350 nm) due to the linkage of monodansylcadaverine to methylated casein as an indication. […] More specifically, 20 μl of each crude extract was added to 2 ml of a solution comprising 50 mM Tris-HCl buffer (pH 8.5), 1 mg/ml methylated casein, 15 μM monodansylcadaverine and 10 mM calcium chloride, followed by stirring and keeping warm at 37° C. for 20 minutes. After the reaction, 100 μl of 500 mM EDTA solution was added to the reaction system and each reaction solution was inspected for the intensity of emitted fluorescent light using a fluorophotometer (Shimadzu RF-1500, available from Shimadzu Corporation).
The transformant was first inoculated on 50 ml of a glucose synthesis minimum medium (prepared by adding 2% glucose and 50 mg/ml of histidine to the foregoing synthesis minimum medium) contained in a Sakaguchi flask and cultivated at 30° C. for 24 hours by shaking culture to increase the number of the cells. […]

With “TGase originated from Cavia porcellus (available from Takara Co., Ltd.) (from UniProt P08587) (enzyme)” the Increase in Fluorescent Intensity/Cultivation Temp. (increase in fluorescent intensity) (dimethylated casein [1]) was 4.3.

In the case of “fusion protein of β-galactosidase and the TGase of Crassostrea gigas expressed by plasmid pCGTG4E (enzyme)”, the Increase in Fluorescent Intensity/Cultivation Temp. (increase in fluorescent intensity) (dimethylated casein [1]) is reported as 12.8.

“recombinant type transglutaminase of Crassostrea gigas expressed in Saccharomyces cerevisiae INVSC2/pCGTG4S (enzyme)” was tested, and the Increase in Fluorescent Intensity (increase in fluorescent intensity) (dimethylated casein [2]) was 46.6.

“transglutaminase originating from Crassostrea gigas (purified from natural Crassostrea gigas) (enzyme)” showed a Specific Activity (unit/mg): incorporation of monodansylcadaverine into dimethylated casein, fluorescence (dimethylated casein [3]) of 1400 unit/mg.

B1: purified transglutaminase: transglutaminase isolated and purified from Crassostrea gigas (Japanese oyster); Mono-Q active fraction (protein)
chain: AFWGVFYTIYSGIRRIAGQPPEEDTSDKEQKRSRTKKALGSEEEEGRISSLSDEDLRARNKVLEPKDEPSATLNVSSVDCQTKLNRKNHHTNEFEKAGNIYRRGQAFVIRVEFDREVNSDHDVILLQFTYGSRPQESKGTVIRIPLDLKPTTKTSDVTETWFAEVKNIAGKGLECAITSAPDSSIGEYRFYIETNLKDTDAVKRYEENESMIILFNAWAKEDTVYMDKEGERGEYVLNETGRVWTSRTWYGRPWNFGQFDDPVLDVALQLLLEGGLSDVACTSPVSVIRCLSSLCNSCDNNGVLAGRWTKEYPKDCTVPWKWTGSVAIIKEYHTNGNKPVRYGQCWVFSGLLTTMCRCLGIPTRSVTNFDSAHDTDSSMTIDSHWDEDGEPLEDMNDSVWNFHVWNESWFRRLDLPEGYDGWQAHDATPQEASEGIMRCGPAPLTAIKEGHVYLNFDIPFVFGEVNGDRVQWVVKKDGTMEVSQIDHSAVGHYISTKRMGSNDREDVTNLYKYPDGSEQERRVAKFVNRYSTRRKQNIYKLDTTKVLKFTVSPPDNTLIGDDMEIKVAVKNTADGPLKLHLTVSLVNAYYTGVAGSRVKTQTFEETIKAKDEKIVTMPVKGTEYHDGMNPEGRFQLYISGKNIDSGSMESTQISFVLKKPQLVIQVPQTIEAKEETEATIVFKNTTQLVLTQAEIAVEGSGLLAPQTIDISSPIKPGDEVKKTVVLRPRKPYYWGRELIATFTSKQIVDIETSADIKVIRQNKDNDSDSD
B1 was tested, and the degree of gelation (casein; NaCl 0 M, CaCl2 0 mM, 1% casein, 4.0 units/mg, 37° C. 90 min) was “-”, the degree of gelation (casein; NaCl 0 M, CaCl2 10 mM) was “-” and the degree of gelation (casein; NaCl 0 M, CaCl2 25 mM) was “-”. For the same molecule, the degree of gelation (casein; NaCl 0 M, CaCl2 50 mM) was “±”, the degree of gelation (casein; NaCl 0 M, CaCl2 100 mM) was “+” and the degree of gelation (casein; NaCl 0 M, CaCl2 200 mM) was “+”. The degree of gelation (casein; NaCl 0.1 M, CaCl2 0 mM) was “-”, the degree of gelation (casein; NaCl 0.1 M, CaCl2 10 mM) was “-” and the degree of gelation (casein; NaCl 0.1 M, CaCl2 25 mM) was “±”. For the same molecule, the degree of gelation (casein; NaCl 0.1 M, CaCl2 50 mM) was “+”, the degree of gelation (casein; NaCl 0.1 M, CaCl2 100 mM) was “+” and the degree of gelation (casein; NaCl 0.1 M, CaCl2 200 mM) was “±”. The “Ca2+ concentration at which the casein solution underwent gelation” value (casein; NaCl 0.3M) was “not less than 25 mM”, the degree of gelation (casein; NaCl 0.3 M, CaCl2 0 mM) was “-” and the degree of gelation (casein; NaCl 0.3 M, CaCl2 10 mM) was “±”. For the same molecule, the degree of gelation (casein; NaCl 0.3 M, CaCl2 25 mM) was “+”, the degree of gelation (casein; NaCl 0.3 M, CaCl2 50 mM) was “+” and the degree of gelation (casein; NaCl 0.3 M, CaCl2 100 mM) was “+”. The degree of gelation (casein; NaCl 0.3 M, CaCl2 200 mM) was “+”, the “Ca2+ concentration at which the casein solution underwent gelation” value (casein; free of NaCl) was “not less than 100 mM” and the specific activity ([4]; Mono-Q active fraction) was 1404 units/mg protein. For the same molecule, the total activity ([4]; Mono-Q active fraction) was 358 units, the “specific activity” value ([4]; purification step, Table 1) was 1404 unit/mg and the “total activity” value ([4]; purification step, Table 1) was 368 unit. The “specific activity relative to that of the crude extract” value ([4]; purified solution vs crude extract) was “about 250 times”, the “effect of addition of KCl on enzyme activity (in words)” value [5] was “improved” and the “maximum activity in the presence of NaCl relative to that in the absence” value [5] was “about 2 times”. The “Ca2+ concentration at which the activity reached the highest level” value ([5]; in the absence of NaCl) was “about 100 mM”, the “Ca2+ concentration at which the activity reached the highest level” value ([5]; in the presence of NaCl (0.5M)) was “about 10 mM” and the “effect of NaCl concentration on enzyme activity (in words)” value (from here on “effect of NaCl concentration”) [5] was “increased as the NaCl concentration increased”.

B2: TGase of Cavia porcellus: TGase originated from Cavia porcellus (available from Takara Co., Ltd.), used as control (protein)
chain: AEDLILERCDLQLEVNGRDHRTADLCRERLVLRRGQPFWLTLHFEGRGYEAGVDTLTFNAVTGPDPSEEAGTMARFSLSSAVEGGTWSASAVDQQDSTVSLLLSTPADAPIGLYRLSLEASTGYQGSSFVLGHFILLYNPRCPADAVYMDSDQERQEYVLTQQGFIYQGSAKFINGIPWNFGQFEDGILDICLMLLDTNPKFLKNAGQDCSRRSRPVYVGRVVSAMVNCNDDQGVLQGRWDNNYSDGVSPMSWIGSVDILRRWKDYGCQRVKYGQCWVFAAVACTVLRCLGIPTRVVTNFNSAHDQNSNLLIEYFRNESGEIEGNKSEMIWNFHCWVESWMTRPDLEPGYEGWQALDPTPQEKSEGTYCCGPVPVRAIKEGHLNVKYDAPFVFAEVNADVVNWIRQKDGSLRKSINHLVVGLKISTKSVGRDEREDITHTYKYPEGSEEEREAFVRANHLNKLATKEEAQEETGVAMRIRVGQNMTMGSDFDIFAYITNGTAESHECQLLLCARIVSYNGVLGPVCSTNDLLNLTLDPFSENSIPLHILYEKYGDYLTESNLIKVRGLLIEPAANSYVLAERDIYLENPEIKIRVLGEPKQNRKLIAEVSLKNPLPVPLLGCIFTVEGAGLTKDQKSVEVPDPVEAGEQAKVRVDLLPTEVGLHKLVVNFECDKLKAVKGYRNVIIGPA
For B2, the “Increase in Fluorescent Intensity” value [6] was 3.5, the “Increase in Fluorescent Intensity” value [7] was 4.3 and the “effect of NaCl concentration” value [5] was “did not show any increase”. The “Increase in Fluorescent Intensity” value [8] was 3.4.

B3: transglutaminase originating from a microorganism: TGase originating from a microorganism; probably the Streptoverticillium calcium-independent BTG (protein, UniProt P81453 77-407, looked up)
Protein-glutamine …: DSDDRVTPPAEPLDRMPDPYRPSYGRAETVVNNYIRKWQQVYSHRDGRKQQMTEEQREWLSYGCVGVTWVNSGQYPTNRLAFASFDEDRFKNELKNGRPRSGETRAEFEGRVAKESFDEEKGFQRAREVASVMNRALENAHDESAYLDNLKKELANGNDALRNEDARSPFYSALRNTPSFKERNGGNHDPSRMKAVIYSKHFWSGQDRSSSADKRKYGDPDAFRPAPGTGLVDMSRDRNIPRSPTSPGEGFVNFDYGWFGAQTEADADKTVWTHGNHYHAPNGSLGAMHVYESKFRNWSEGYSDFDRGAYVITFIPKSWNTAPDKVKQGWP
With B3 the “effect of NaCl concentration” value [5] was “did not show any increase”.

Reference: US5736356A, “Transglutaminase originating from Crassostrea gigas” (Ajinomoto Co., Inc., priority 1994, dated 1998)
